In article PMC4821807, “Estrogen receptor alpha somatic mutations Y537S and D538G confer breast cancer endocrine resistance by stabilizing the activating function-2 binding conformation” (eLife, 2016):
Like-named read-outs stand apart in the source and are kept apart here.

How the values were obtained:
[1] = biological target: D538G estrogen receptor α ligand-binding domain (ERα amino acids 304–554), 6×His fusion, biotin-labelled at C417 (human) (UniProt P03372); experiment: FRET or BRET; time-resolved FRET, SRC titration, no ligand (apo): SRC3-fluorescein titrated from 3.2×10^-7 to 3.2×10^-12 M into 1 nM biotinylated ERα LBD on 0.25 nM streptavidin-terbium; 96-well plates
[2] = biological target: Y537S estrogen receptor α ligand-binding domain (ERα amino acids 304–554), 6×His fusion, biotin-labelled at C417 (human) (UniProt P03372); experiment: as above
[3] = biological target: D538G estrogen receptor α ligand-binding domain (ERα amino acids 304–554), 6×His fusion, biotin-labelled at C417 (human) (UniProt P03372); experiment: FRET or BRET; time-resolved FRET, SRC titration, ER pre-saturated with 1 µM E2: SRC3-fluorescein titrated from 3.2×10^-7 to 3.2×10^-12 M into 1 nM biotinylated ERα LBD on 0.25 nM streptavidin-terbium
[4] = biological target: Y537S estrogen receptor α ligand-binding domain (ERα amino acids 304–554), 6×His fusion, biotin-labelled at C417 (human) (UniProt P03372); experiment: as above
[5] = biological target: wild type estrogen receptor α ligand-binding domain (ERα amino acids 304–554), 6×His fusion, biotin-labelled at C417 (human) (UniProt P03372); experiment: as above
D538G mutant ERα = system: D538G mutant ERα; set-up: method as in Toy et al., 2013; conditions: breast cancer cells, ref Toy et al., 2013; cited from earlier work
Y537S mutant ERα = system: Y537S mutant ERα; set-up: method as in Toy et al., 2013; conditions: breast cancer cells, ref Toy et al., 2013; cited from earlier work
[6] = biological target: the molecule itself; experiment: crystal structure; D538G ERα LBD with 1 mM E2 and a 2.5-fold molar excess of GRIP peptide; hanging drop, 25% PEG 3,350, 200 mM MgCl2, 100 mM Tris pH 8.5, 1 mM phenylalanine
WT ERα LBD = WT ERα LBD (Homo sapiens, UniProt P03372); type: binding; conditions: for SRC-3 NRD Kd: WT apo (absence of E2)
Method: (§1) While bound to the Ni-NTA-agarose resin (Qiagen Inc., Santa Clarita, CA), the ERs were labeled with MAL-dPEG4-biotin (Quanta BioDesign, Powell, OH), site-specifically at C417. The SRC3-NRD construct has 4 cysteines and was labeled non-specifically, also while on the resin, with 5-iodoacetamido fluorescein (Molecular Probes, Invitrogen, Eugene, OR).
(§2) Diffusion-enhanced FRET was determined by a parallel incubation without biotinylated ER-LBD and subtracted as a background signal. […] The data, representing 2–3 replicate experiments, each with duplicate points, were analyzed using GraphPad Prism 4 and are expressed as the EC50 in nM.

Y537S ERα LBD = Y537S ERα LBD (Homo sapiens, UniProt P03372, Y537S, form not given); type: binding; conditions: for Kd: read-out: SRC-3 NRD Kd
Method: as §1, §2

D538G ERα LBD = D538G ERα LBD (Homo sapiens, UniProt P03372, D538G, form not given); type: binding; conditions: for Kd: read-out: SRC-3 NRD Kd
Method: as §1, §2

Molecule: steroid receptor coactivator 3 nuclear receptor domain (amino acids 627–829), fluorescein-labelled (from UniProt Q9Y6Q9 627-829) (domain or fragment)
- Kd [1]: 151 nM
- Kd [2]: 13.6 nM
- Kd [3]: 3.65 nM
- Kd [4]: 0.59 nM
- Kd [5]: 2.67 nM

Molecule: C[C@]12CC[C@@H]3c4ccc(O)cc4C[C@@H](CCCCCCCCC[S+]([O-])CCCC(F)(F)C(F)(F)F)[C@H]3[C@@H]1CC[C@@H]2O (stereo partly shown) [fulvestrant]
- ablation of transcriptional activity of the mutant (D538G mutant ERα): completely ablate
- ablation of transcriptional activity of the mutant (Y537S mutant ERα): completely ablate

Molecule: CC/C(=C(\c1ccc(O)cc1)c1ccc(OCCN(C)C)cc1)c1ccccc1 [TOT, 4-hydroxytamoxifen]
- ablation of transcriptional activity of the mutant (D538G mutant ERα): could not
- ablation of transcriptional activity of the mutant (Y537S mutant ERα): could not

B1: ERα LBD D538G mutant (crystallisation construct, 6×His-TEV tag removed) (domain or fragment, human)
chain: KRSKKNSLALSLTADQMVSALLDAEPPILYSEYDPTRPFSEASMMGLLTNLADRELVHMINWAKRVPGFVDLTLHDQVHLLECAWLEILMIGLVWRSMEHPGKLLFAPNLLLDRNQGKCVEGMVEIFDMLLATSSRFRMMNLQGEEFVCLKSIILLNSGVYTFLSSTLKSLEEKDHIHRVLDKITDTLIHLMAKAGLTLQQQHQRLAQLLLILSHIRHMSNKGMEHLYSMKCKNVVPLYGLLLEMLDAHRLHAPTS
notes: Unresolved residues were not included in the deposited structures; also called apo D538G; D538G-E2; source: E. coli BL21 (DE3), purified (Ni-NTA, TEV cleavage, Resource Q ion exchange)
- binding result [6]: binds

B2: SRC3 NRD: steroid receptor coactivator 3 nuclear receptor domain, human, amino acids 627–829, fluorescein labeled (protein)
chain: CSSDDRGHSSLTNSPLDSSCKESSVSVTSPSGVSSSTSGGVSSTSNMHGSLLQEKHRILHKLLQNGNSPAEVAKITAEATGKDTSSITSCGDGNVVKQEQLSPKKKENNALLRYLLDRDDPSDALSKELQPQVEGVDNKMSQCTSSTIPSSSQEKDPKIKTETSEEGSGDLDNLDAILGDLTSSDFYNNSISSNGSHLGTKQQ
modifications: 5-iodoacetamido fluorescein on cysteines, non-specific (4 cysteines; an average of 1.8–2 fluorescein molecules attached); left off: His tag (inferred from the labelling on the resin), end not stated,
- SRC-3 NRD Kd (WT ERα LBD): no binding was detected
- SRC-3 NRD Kd (WT ERα LBD; listed as SRC-3 NRD): No Recruitment
- Kd (WT ERα LBD; WT saturated with E2 (1 µM ligand), read-out: SRC-3 NRD Kd): 2.67 ± 0.5 nM
- Kd (Y537S ERα LBD; Y537S apo (absence of E2)): 13.6 ± 2 nM
- Kd (Y537S ERα LBD; Y537S pre-saturated with E2 (1 µM ligand)): 0.59 ± 0.1 nM
- SRC3 binding curve plateau, of the maximum (Y537S ERα LBD; Y537S, absence of E2): approximately 60%
- Kd (D538G ERα LBD; D538G apo (absence of E2)): 151 ± 20 nM
- Kd (D538G ERα LBD; D538G pre-saturated with E2 (1 µM ligand)): 3.65 ± 0.4 nM
- SRC3 binding curve plateau, of the maximum (D538G ERα LBD; D538G, absence of E2): approximately 60%
